Where a chain is given by its changes, count along the chain named.
What was measured:
human CD47-Fc [1] = molecular target: T1, human CD47-Fc (human, UniProt Q08722 19-134); test: competitive ELISA without VHH: uninhibited SIRP-Fc / CD47-Fc signal
T1 construct: Leu19-Val134 is the natural numbering printed; also called human CD47-Fc receptor; human CD47-Fc (Biocad); not shown: Fc tag of the expression plasmid

CD47 proprietary = CD47 proprietary (human, UniProt Q08722 19-134, limits assumed); test: ELISA on CD47 proprietary, 450 nm
Sequence of CD47 proprietary (Q08722 19-134 limits assumed): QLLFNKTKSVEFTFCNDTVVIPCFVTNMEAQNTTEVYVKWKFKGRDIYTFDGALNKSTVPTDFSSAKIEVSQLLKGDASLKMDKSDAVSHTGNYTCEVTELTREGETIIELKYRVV

human CD47-Fc [2] = molecular target: T1, human CD47-Fc; test: competitive ELISA, competitor SIRP-Fc; lower OD means more blocking
human CD47-Fc [3] = molecular target: T1, human CD47-Fc; test: BLI (Octet Red 96), CD47-Fc on ARG2 sensor, VHH in growth medium, 1:1 model
Experimental: VHH antibody fragments were measured to provide an example of analysis of kinetic parameters of interaction of antibody fragments that specifically bind to CD47 receptor. Dissociation constant (kdis)-based comparative screening for VHH fragments was performed using Octet Red 96 and ARG2 amino-reactive biosensors (Pall-ForteBio). Affinity constants can be calculated based on the exact protein concentration in the test solution, and, since cell growth media were used as a protein solution and protein concentrations were not measured, the candidates were compared to each other by using the dissociation constant thereof. Biosensors were pre-rehydrated for an hour in water. After activating biosensors, CD47-Fc at a concentration of 10 μg/ml in acetate buffer pH4 was non-specifically (by NH2 groups) immobilized onto the biosensor. The sensors were then immersed into wells containing cell growth medium with specific VHHs (from about 1 μg of VHH in 1 ml of medium), where the complex was associated. The sensors were then immersed in a buffer solution, where the subsequent stage of dissociation of the complex took place. 1/10 of the volume of 10× working buffer was added to the test specimens in E. Coli growth medium containing anti-CD47 VHH fragments. The obtained curves were analyzed using OctetDataAnalysis (version 7.0) according to the standard procedure with 1:1 interaction model.

human CD47-Fc [4] = molecular target: T1, human CD47-Fc; test: ELISA, CD47-Fc coated, VHH in E. coli supernatant, anti-myc detection, 450 nm
Experimental: ELISA was used to measure the binding of specific test antibody fragments of Example 4 to human CD47-Fc. ELISA well plates (Nunc ImmunoMaxisorp) were covered with 50 μl/well of human CD47-Fc (Biocad) (0.5 μg/ml in 1× coating carbonate buffer), sealed, and incubated overnight at 4° C. All further stages were performed in accordance with standard ELISA protocols with a high-performance automated platform based on robotic systems such as GenetixQ-pix2xt (Molecular Devices) and Tecan Freedom EVO 200 (Tecan). Non-specific binding was blocked by adding a blocking buffer BB (200 μl 0.5% fat-free milk in PBS). Plates were incubated on a shaker for 1 h at room temperature. After washing with PBS-Tween, each cell was coated with 100 μl of cell supernatant containing the test antibody fragment. The plates were incubated on a shaker for 1 hour at room temperature; further, each plate well was 5 times washed with PBS-Tween buffer. After washing, mouse anti-MYC IgG clone 9E10 (ThermoFisher Scientific) (50 μl/well) was added to PBS-Tween (1:5000). The plates were shaken in rotation shaker (50 min at room temperature) and then 5 times washed with PBS-Tween buffer as described above. After washing, anti-mouse IgG HRP conjugate (ThermoFisher Scientific) (50 μl/well) was added to PBS-Tween (1:10000). The plates were shaken in rotation shaker (50 min at room temperature) and then 5 times washed with PBS-Tween buffer as described above. Colorimetric signal was obtained by adding TMB (50 μl/well) until saturated (average of 10-12 min); further color development was blocked by adding a stop solution (25 μl/well, 1% sulfuric acid). Color signal was measured at 450 nm using a suitable Tecan-Sunrise plate reader (Tecan). Antibody binding was proportional to the signal produced.

T1 sequence (Q08722 19-134): as the sequence (Q08722 19-134 limits assumed) above

Molecule: SIRP-Fc ligand (BIOCAD) (from UniProt P78324 31-370) (Fc fusion)
- OD units, competitive screening to SIRP-Fc (human CD47-Fc [1]): 0.481 OD units

B1: BCD106-02_L.Alecto.VHHSel2_MP1_G7_53 (VHH)
VHH: QVKLEESGGGLVQPGGSLTLSCAASGIISSINAMNWYRQAPGKRREWVAQITGEGITNCRDSWKGRFSITSDSANNTMYLQMNNLKPDDTDVYYCNAFVIHTTSEIYWGLGTTVTVSS
notes: Llama anti-CD47 VHH tested as E. coli culture supernatant; not shown: myc and His6 tags at the C-terminus of the VHH (pET-22)
- OD units, binding on CD47 proprietary (CD47 proprietary): 0.498 OD units
- OD units, competitive screening to SIRP-Fc (human CD47-Fc [2]): 0.088 OD units
- koff (human CD47-Fc [3]): 0.008 s⁻¹
- OD units, initial screening for CD47-Fc (human CD47-Fc [4]): 0.319 OD units

B2: BCD106-02_L.Alecto.VHHSel2_MP1_G5_37 (VHH)
VHH: AVQLVDSGGGLVQPGGSLRLSCAASRSIFSINAMNWYRQAPGNRREWVAQITDEGITNYVDSVKGRFTITRDNAKNTMYLQMNSLKPEDTAVYYCNAFVITTTSEIYWGQGTTVTVSS
notes: as for B1
- OD units, binding on CD47 proprietary (CD47 proprietary): 0.426 OD units
- OD units, competitive screening to SIRP-Fc (human CD47-Fc [2]): 0.143 OD units
- koff (human CD47-Fc [3]): 0.006 s⁻¹
- OD units, initial screening for CD47-Fc (human CD47-Fc [4]): 0.166 OD units

B3: BCD106-02_L.Alecto.VHHSel2_MP1_C7_49 (VHH)
VHH: B2 VHH with A40P
notes: as for B1
- OD units, binding on CD47 proprietary (CD47 proprietary): 0.379 OD units
- OD units, competitive screening to SIRP-Fc (human CD47-Fc [2]): 0.14 OD units
- koff (human CD47-Fc [3]): 0.005 s⁻¹
- OD units, initial screening for CD47-Fc (human CD47-Fc [4]): 0.127 OD units

B4: BCD106-02_L.Alecto.VHHSel2_MP1_F10_76 (VHH)
VHH: B2 VHH with A1D, D6E, S27N, N43K, D53S, T102A, T103S, I106V
notes: as for B1
- OD units, binding on CD47 proprietary (CD47 proprietary): 0.312 OD units
- OD units, competitive screening to SIRP-Fc (human CD47-Fc [2]): 0.114 OD units
- koff (human CD47-Fc [3]): 0.01 s⁻¹
- OD units, initial screening for CD47-Fc (human CD47-Fc [4]): 0.213 OD units

B5: BCD106-02_L.Alecto.VHHSel2_MP1_B9_64 (VHH)
VHH: DVQLVESGGGLVQPGGSLTLSCAASRNIFRINAMNWYRQAPGKRREWVAPITSEGITNYVDSVKGRFTITRDNAKNTMYLQMNSLKPEDTAVYYCNACLITASSEVYWGQGTLVTVSS
notes: as for B1
- OD units, binding on CD47 proprietary (CD47 proprietary): 0.24 OD units
- OD units, competitive screening to SIRP-Fc (human CD47-Fc [2]): 0.188 OD units
- koff (human CD47-Fc [3]): 0.008 s⁻¹
- OD units, initial screening for CD47-Fc (human CD47-Fc [4]): 0.129 OD units

B6: BCD106-02_L.Alecto.VHHSel2_MP1_H10_78 (VHH)
VHH: QVKLEESGGGLVQPGGSLRLSCAASRSISSINAMNWYRQAPGKRREWVAQITGEGITNYRDSVKGRFTITSDNAKNTMYLQMNSLKPEDTAVYYCNAFVIHTTSEVYWGQGTLVTVSS
notes: as for B1
- OD units, binding on CD47 proprietary (CD47 proprietary): 0.448 OD units
- OD units, competitive screening to SIRP-Fc (human CD47-Fc [2]): 0.095 OD units
- koff (human CD47-Fc [3]): 0.006 s⁻¹
- OD units, initial screening for CD47-Fc (human CD47-Fc [4]): 0.4 OD units
